According to US11898183B2, “Programmed microorganisms to attenuate a disease” (priority 2020, dated 2024):

Tested on: pathway specific substrates
Experiment: Enzyme functionality of pathway enzyme homologs and fusion constructs in lysed E. coli cell extracts, product by HPLC
Format: biochemical, E. coli BL21
Settings: recombinant E. coli BL21 clone, lysed cell extract
Method in brief: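 Enzymes and fusion constructs were expressed in E. coli BL21 (pET28, T7 promoter) with 0.1 mM IPTG at 30 °C for ~20 h in M9 medium. Cleared freeze-thaw lysates were incubated with pathway-specific substrates. Products were quantified by HPLC relative to empty-plasmid lysates.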

B1: Secoisolariciresinol dehydrogenase (SDH) (SEQ ID NO: 22) Juglans regia (protein, listed as Juglans regia)
chain: MNGTSSLLAPIAKRLAGKVALITGGASGIGESTARLFAEQGAKVIIADVQDELGFSVSQDKSINGAISYIHCDVTSESDVQNAVNTAVSKHGKLDIMFNTAGCTGQNKASILDHEQKDYKTVFDVNVLGSFLGAKHAAKVMIPVKRGTILFTASCVTESHGLASHSYTASKHAVVGLTKNLCVELGQYGIRVNCISPYGAATPLFLKGMGIDKKEKAEEILSSAANLKGPVLEAGDLAEAALFLASEESKYVSVLNLVVDGGYSATNVAFTETIQKFFT
With B1 the “Enzyme activity in terms of product formation (in %)” value (“Enzyme activity in terms … (in %)” for short) (substrate tested: Secoisolariciresinol) was 99%.

B2: CYP719 (SEQ ID NO: 24) Papaver somniferum (protein, listed as Papaver somniferum)
chain: MIMSNLWILTLISTILAVFAAVLIIFRRRISASTTEWPVGPKTLPIIGNLHILGGTALHVVLHKLAEVYGSVMTIWIGSWKPVIIVSDFDRAWEVLVNKSSDYSAREMPEITKIGTANWRTISSSDSGPFWATLRKGLQSVALSPQHLASQTAHQERDIIKLIKNLKDEAASGMVKPLDHLKKATVRLISRLIYGQDFDDDKYVEDMHDVIEFLIRISGYAQLAEVFYYAKYLPGHKRAVTGAEEAKRRVIALVRPFLQSNPATNTYLHFLKSQLYPEEVIIFAIFEAYLLGVDSTSSTTAWALAFLIREPSVQEKLYQELKNFTANNNRTMLKVEDVNKLPYLQAVVKETMRMKPIAPLAIPHKACKDTSLMGKKVDKGTKVMVNIHALHHTEKVWKEPYKFIPERFLQKHDKAMEQSLLPFSAGMRICAGMELGKLQFSFSLANLVNAFKWSCVSDGVLPDMSDLLGFVLFMKTPLEARIVPRL
For B2, the “Enzyme activity in terms … (in %)” value (substrate tested: Matairesinol) was 76%.

B3: CYP719 (SEQ ID NO: 26) Cinnamomum micranthum (protein)
chain: MEAIWTAVAIGIAAAVLMAFRGRQRQRLSRKPTQWPPGPTRLPLIGNMHQILLKGGDPFHVAINKLAQVYGPLMTVWFGTRQPTIIVSDHNLVWEVLVSKSADYAAREIPITLKPSLADFRTIVSSNAGPLWHSLRRGLQNGAIGPHSLSLQAPFQESDMAQMINNMIKEANLNGGVVKPFPHIRRAIIKLLARICFGCDFSDEEFDATMDFMVEEALRYSDDSRILDTFPPARFLPSVKRAVMQMEKVKLRLMECIGRPLDSPLPPTCYAHFLLSQSFPREVAIFSIFELFLLGVDSTGSTTMWGLGLLMQNQEAQQKLYQEIREHASCNEKGVVKVEELGKLEYLQAVAKETMRMKPIAPLAVPHQAARDTTLDGLHVAEGTTVLANLYALHYDPKVWDEPERFKPERFLESSKEFLGKRGQYSFLPFGAGMRACAGMEVGKLQLPFAICNLVNAFNWSNVVEKEAPKLIEGFSFILSMKTPLEARIVPRGI
modifications: Depicts the amino acid sequence of CYP719 of Cinnamomum micranthum
B3 was tested, and the “Enzyme activity in terms … (in %)” value (substrate tested: Matairesinol) was 97%.

B4: CYP719 Coptis japonica (protein, UniProt Q948Y1 1-491, looked up)
(S)-canadine synthase: MEMNPLLVCATVAIVFATTTIIRILFSSSSLPQMKWPSGPRKLPIIGNLHQLGDDVLHVALAKLAKVHGSVMTIWIGSWRPVIVISDIEKAWEVLVNKSADYGARDMPEITKIASASWHTISTSDAGSFWQNVRKGLQSGAMGPLNVAAQNQYQERDMKRLIKAMSDEAANNNGIVKPLDHIKKNTVRLLTRLIFGQAFDDNKFIESMHYEIEDIIRISGYARLAEAFYYAKYLPSHKKAEREAFLVKCRVEELVRPLLSSKPPTNSYLYFLLSQNFEEEVIIFCIFELYLLGVDSTSSTTTWALAYLIREQGAQEKLYQDIRMTLGDVDLVKIEDVNKLKYLQGVVKETMRMKPIAPLAIPHKTAKETTLMGTKVAKGTRIMVNLYALHHNQNIWPDPYKFMPERFLEGETGTAYNKAMEQSFLPFSAGMRICAGMDLGKLQFAFALANLVNAFKWSCVEEGKLPDMGEELSFVLLMKTPLEARIAGRNV
For B4, the “Enzyme activity in terms … (in %)” value (substrate tested: Matairesinol) was 0%.

B5: CYP71 (SEQ ID NO: 32) Cinnamomum micranthum (protein)
chain: MALLLSLLFFASALIFLLKLNGQRANKTDVPPSPPKLPLIGNLHQLGTLPHRSLRSLAGKYGPLMLLYLGRIPTLIVSSEEMAEQIMKTHDLIFASRPSITAAKELLYGCTDLAFASYGEYWRQVRKMCVLELLSIKRVNSFRSIMEEEVGLMIERISQSSSTGAAVNLAELFLSLTGGTIARAALGKKYEGEAEEGRNKYADLVKELHALLGAFSVGDYFPSLAWVDVVTGLHGKLKRNSRELDRFLDQVIEHHLMRPLDGCDVGEHTDLVDVMLQVQKDSNRDIHLTRDNIKAIILDMFSAGTDTTALTLEWVMAELAKHPNVMKKAQGEVRRVVDVKANISEEHLCQLNYMKSIIKETLRLHPPAPLLVPRESTTNVKIQNFHIPPKTRVFINAYAIGRDPTSWENPEEFLPERFANNSVDFKGQDFQFIPFGAGRRGCPGLSFAITSLELALANLLYWFDWELPQGVTEEDLDMSEALGITVHKKLPLYLVPKNHFS
modifications: Depicts the amino sequence of CYP71 of Cinnamomum micranthum
For B5, the “Enzyme activity in terms … (in %)” value (substrate tested: Bursehernin) was 94%.

B6: Bifunctional pinoresinol-lariciresinol reductase (DIRPLR) (SEQ ID NO: 20) Linum usitatissimum (protein, listed as Linum usitatissimum)
chain: MGRCRVLVVGGTGYIGKRIVKASIEHGHDTYVLKRPETGLDIEKFQLLLSFKKQGAHLVEASFSDHESLVRAVKLVDVVICTVSGAHSRSLLLQLKLVEAIKEAGNVKRFIPSEFGMDPARMGDALEPGRETFDLKMVVRKAIEDANIPHTYISANCFGGYFVGNLSQLGPLTPPSDKVTIYGDGNVKVVYMDEDDVATYTIMTIEDDRTLNKTMYFRPPENVITHRQLVETWEKLSGNQLQKTELSSQDFLALMEGKDVAEQIVIGHLYHIYYEGCLTNFDIDADQDQVEASSLYPEVEYTRMKDYLMIYL
In the case of B6, the “Enzyme activity in terms … (in %)” value (substrate tested: Coniferyl alcohol) is reported as 98%.

B7: O-methyltransferase 3 (OMT) (SEQ ID NO: 30) Sinopodophyllum hexandrum (protein)
chain: MEMAPTMDLEIRNGNGYGDSGEELLAAQAHIYNHIFNFISSMALKCAVELNIPEILHNHQPKAVTLSELVQALQIPQAKSACLYRLLRILVHSGFFAITKIQSEGDEEGYLPTLSSKLLLKNHPMSMSPCLLGLVNPTMVAPMHFFSDWFKRSDDMTPFEATHGASLWKYFGETPHMAEIFNEAMGCETRLAMSVVLKECKGKLEGISSLVDVGGGTGNVGRAIAEAFPNVKCTVLDLPQVVGNLKGSNNLEFVSGDMFQFIPPADVVFLKWILHDWNDEECIKILKRCKEAIPSKEEGGKLIIIDMVVNDHNKGSYESTETQLFYDLTLMALLTGTERTETEWKKLFVAAGFTSYIISPVLGLKSIIEVFP
modifications: Depcits amino acid sequence of O-methyltransferase 3 (OMT) of Sinopodophyllum hexandrum
With B7 the “Enzyme activity in terms … (in %)” value (substrate tested: Pluviatolide) was 99%.

B8: O-methyltransferase 3 (OMT) (SEQ ID NO: 28) Papaver somniferum (protein, listed as Papaver somniferum)
chain: MEVVSKIDQENQAKIWKQIFGFAESLVLKCAVQLEIAETLHNNVKPMSLSELASKLPAQPVNEDRLYRILHFLVHMKLFNKDATTQKYSLAPPAKYLLKGWEKSMVPSILSVTDKDFTAPWNHLGDGLTGNCNAFEKALGKGIRVYMRENPEKDQLFNEGMACDTRLFASALVNECKSIFSDGINTLAGVGRGTGTAVKAISKAFPDIKCTIHDLPEVTSKNSKIPRDVFKSVPSADAIFMKSILHEWNDEECIQILKRCKEAIPKGGKVIIADVVIDMDSTHPYSKSRLAMDLAMMLHTGGKERTEEDWKKLIDAAGFASCKITKLSALQSVIEAYPH
With B8 the “Enzyme activity in terms … (in %)” value (substrate tested: Pluviatolide) was 88%.
